PMC10683472, “Deep Learning-Driven Library Design for the De Novo Discovery of Bioactive Thiopeptides” (ACS Central Science, 2023)

Molecular target: T1, IRAK4 (Homo sapiens, UniProt Q9NWZ3)
T1 sequence (Q9NWZ3 1-460): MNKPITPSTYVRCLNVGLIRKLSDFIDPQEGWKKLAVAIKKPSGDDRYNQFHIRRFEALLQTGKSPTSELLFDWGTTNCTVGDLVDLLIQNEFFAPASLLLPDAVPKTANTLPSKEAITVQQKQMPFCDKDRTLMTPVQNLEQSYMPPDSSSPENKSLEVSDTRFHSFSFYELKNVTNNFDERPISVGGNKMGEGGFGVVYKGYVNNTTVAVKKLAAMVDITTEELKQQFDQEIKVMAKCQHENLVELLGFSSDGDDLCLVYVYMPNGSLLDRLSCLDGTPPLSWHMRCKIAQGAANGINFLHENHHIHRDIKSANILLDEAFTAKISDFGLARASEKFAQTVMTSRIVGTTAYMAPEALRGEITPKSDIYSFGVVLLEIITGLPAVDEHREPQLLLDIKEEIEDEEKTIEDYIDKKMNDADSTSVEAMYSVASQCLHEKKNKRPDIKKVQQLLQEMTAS
Assay: mRNA display affinity selection against IRAK4, NGS abundance
Format: binding
Design: acids 1-460; NP_057207.2) was purchased from Carna Biosciences; purchased Carna Biosciences (Kobe, Japan)
Settings: Top100 selection hits, NGS

| Sequence | Library fraction (IRAK4 selection pulldown (+)) | Raw reads (IRAK4 selection pulldown (+)) | Library fraction (IRAK4 selection pulldown (-)) | Raw reads (IRAK4 selection pulldown (-)) |
| --- | --- | --- | --- | --- |
| SMLFKRRIYR | 0.0001 | 15 |  |  |
| SMLFKRRMYK | 0.0003 | 27 | 0.00019 | 26 |
| SMLFKRRVYK | 0.0001 | 10 |  |  |
| SMLWGRRIYR | 0.0016 | 168 | 0.00036 | 48 |
| SMLWKRKIWG | 0.0047 | 498 | 0.00177 | 237 |
| SMLWKRRICI | 0.0002 | 17 |  |  |
| SMLWRRRKYA | 0.0001 | 16 | 7e-5 | 10 |
| SMQRKTIHWKWT |  |  | 0.00109 | 145 |
| SMQRRVIKWTWA |  |  | 0.00016 | 21 |
| SMRRQFITWHWT |  |  | 9e-5 | 12 |
| SQLCHRRIYK | 0.0001 | 12 |  |  |
| SQLWNRRLYK | 0.0009 | 93 | 0.00059 | 79 |
| SQLYKRRIWM | 0.0001 | 9 |  |  |
| SQLYKRRIYQ | 0.0003 | 37 | 0.00027 | 36 |
| SQRWRCRNYQ | 0.0011 | 116 | 0.002 | 267 |
| SQRWRNRNYR | 0.013 | 1364 | 0.010 | 1401 |
| SQRYKQRCYK | 0.0017 | 182 | 0.0012 | 160 |
| SQRYKRRNYK | 0.0009 | 92 | 0.00037 | 49 |
| SQRYRNRNYQ | 0.0023 | 242 | 0.00064 | 85 |
| SRLWRRRIFQ | 0.0001 | 10 | 9e-5 | 12 |

| Sequence | Library fraction (IRAK4 selection pulldown (+)) | Raw reads (IRAK4 selection pulldown (+)) | Library fraction (IRAK4 selection pulldown (-)) | Raw reads (IRAK4 selection pulldown (-)) |
| --- | --- | --- | --- | --- |
| SRLWRRRIYH | 0.009 | 985 | 0.014 | 1900 |
| STLWNKKIYK | 0.0005 | 54 | 0.00019 | 26 |
| STRWKNRIYR | 0.004 | 433 | 0.003 | 390 |
| STRWKRRNYT | 0.0004 | 39 | 0.00016 | 22 |
| STRWNNRIWR | 0.0001 | 9 |  |  |
| STYRKRRIWY | 0.0001 | 14 |  |  |
| STYWKSRIYT | 0.0002 | 23 |  |  |
| SVCWKRRNCH | 0.0002 | 24 | 0.00016 | 22 |
| SVFWNRRIYK | 0.0006 | 68 | 0.00016 | 21 |
| SVLWKKRVWQ | 0.003 | 318 | 0.00139 | 186 |
| SVLWKRKIHN | 0.0012 | 125 | 0.001 | 137 |
| SVLWKRRIAK | 0.010 | 1112 | 0.011 | 1441 |
| SVLWKRRIWK | 0.033 | 3569 | 0.020 | 2704 |
| SVLWRKRIYR | 0.0037 | 391 | 0.00143 | 191 |
| SVRWKHRIYK | 0.0003 | 29 | 0.00012 | 16 |
| SVRWKRRDYR | 0.0046 | 492 | 0.007 | 903 |
| TADGLILTPWVT | 0.0001 | 15 | 0.00281 | 375 |
| TCLWKRRIYS | 0.0001 | 10 |  |  |
| TLCWKRRTWK | 0.026 | 2745 | 0.018 | 2408 |
| TLCWRRRNYK | 0.024 | 2567 | 0.011 | 1518 |

| Sequence | Library fraction (IRAK4 selection pulldown (+)) | Raw reads (IRAK4 selection pulldown (+)) | Library fraction (IRAK4 selection pulldown (-)) | Raw reads (IRAK4 selection pulldown (-)) |
| --- | --- | --- | --- | --- |
| TLLWKRRIYK | 0.0019 | 207 | 0.00132 | 176 |
| TLLWKRRNWA | 0.0007 | 76 | 0.00043 | 57 |
| TMKRIVINWGWG |  |  | 0.0001 | 14 |
| TMLWKRRIHA | 0.003 | 323 | 0.00136 | 181 |
| TMLWKRRIYR | 0.044 | 4661 | 0.029 | 3881 |
| TMLWKRRLFR | 0.0001 | 9 |  |  |
| TMRWKRRNWA |  |  | 0.00026 | 35 |
| TQFWKRRNYA | 0.0002 | 26 | 7e-5 | 10 |
| TQRVRNRCYK | 0.013 | 1424 | 0.00437 | 584 |
| TQRWKCRLYR | 0.0001 | 12 |  |  |
| TQRWKHRLYK | 0.0006 | 68 | 0.00032 | 43 |
| TQRWKQKNWS | 0.0001 | 9 |  |  |
| TQRWKRRNYT | 0.0013 | 136 | 0.0006 | 80 |
| TQRWNNRNWC | 0.0003 | 29 | 0.00014 | 19 |
| TQRWRARNYK | 0.006 | 624 | 0.00431 | 576 |
| TQRYLSKNYK | 0.0001 | 12 | 0.00025 | 33 |
| TQRYRWRNYK | 0.0001 | 9 |  |  |
| TQYWKRRIYN | 0.007 | 748 | 0.00241 | 322 |
